Assays:
Experiment in all cases: peptide eluted from immunoaffinity-purified MHC class II of infected C57BL/6 BM-DCs, LC-MS/MS
[1] = biological target: T1, …, peptide of C. trachomatis Sigma Regulatory factor (CT424) (Chlamydia trachomatis)
T1 construct: also called RsbV peptide

[2] = biological target: T2, […], peptide of C. trachomatis Predicted D-Amino Acid Dehydrogenase (CT375) (Chlamydia trachomatis)
T2 construct: also called CT375 peptide

[3] = biological target: T3, …, peptide of C. trachomatis Hypothetical protein CT837 (Chlamydia trachomatis)
T3 construct: also called CT837 peptide

[4] = biological target: T4, …, peptide of C. trachomatis Hypothetical protein CT144 (Chlamydia trachomatis)
T4 construct: also called CT144 peptide

[5] = biological target: T5, …, peptide of C. trachomatis Hypothetical protein CT289 (Chlamydia trachomatis)
T5 construct: also called CT289 peptide

[6] = biological target: T6, …, peptide of C. trachomatis Dihydrolipoamide acetyltransferase (CT247) (Chlamydia trachomatis)
T6 construct: also called PdhC peptide

[7] = biological target: T7, IPFAKPDANLSAED, peptide of C. trachomatis Hypothetical protein CT619 (Chlamydia trachomatis)
T7 construct: also called CT619 peptide

[8] = biological target: T8, …, peptide of C. trachomatis FHA domain; homology to adenylate cyclase (CT664) (Chlamydia trachomatis)
T8 construct: also called CT664 peptide

[9] = biological target: T9, …, peptide of C. trachomatis Muramidase (invasin repeat family) (CT759) (Chlamydia trachomatis)
T9 construct: also called NlpD peptide

[10] = biological target: T10, …, peptide of C. trachomatis Hypothetical protein CT143 (Chlamydia trachomatis)
T10 construct: also called CT143 peptide

[11] = biological target: T11, …, peptide of C. trachomatis CHLPN 76kDa Homolog (CT622) (Chlamydia trachomatis)
T11 construct: also called CT622 peptide

[12] = biological target: T12, …, peptide of C. trachomatis Hypothetical protein CT472 (Chlamydia trachomatis)
T12 construct: also called CT472 peptide

Measured: binding result

B1: MHC class II (I-Ab) molecules of bone marrow derived dendritic cells from C57BL/6 mice (receptor)
MHC II alpha: EDDIEADHVGTYGISVYQSPGDIGQYTFEFDGDELFYVDLDKKETVWMLPEFGQLASFDPQGGLQNIAVVKHNLGVLTKRSNSTPATNEAPQATVFPKSPVLLGQPNTLICFVDNIFPPVINITWLRNSKSVADGVYETSFFVNRDYSFHKLSYLTFIPSDDDIYDCKVEHWGLEEPVLKHWEPEIPAPMSELTETVVCALGLSVGLVGIVVGTIFIIQGLRSGGTSRHPGPL
MHC II beta: GDSERHFVYQFMGECYFTNGTQRIRYVTRYIYNREEYVRYDSDVGEHRAVTELGRPDAEYWNSQPEILERTRAELDTVCRHNYEGPETHTSLRRLEQPNVVISLSRTEALNHHNTLVCSVTDFYPAKIKVRWFRNGQEETVGVSSTQLIRNGDWTFQVLVMLEMTPRRGEVYTCHVEHPSLKSPITVEWRAQSESAWSKMLSGIGGCVLGVIFLGLGLFIRHRSQKGPRGPPPAGLLQ
notes: whole, on cells; also called MHC class II molecules
binds: all assays above
